Test [1] has as its target T1, norovirus GII.10 VLPs (full-length capsid protein VP1, virus-like particles) (norovirus GII.10 (Vietnam026)).
T1 chain: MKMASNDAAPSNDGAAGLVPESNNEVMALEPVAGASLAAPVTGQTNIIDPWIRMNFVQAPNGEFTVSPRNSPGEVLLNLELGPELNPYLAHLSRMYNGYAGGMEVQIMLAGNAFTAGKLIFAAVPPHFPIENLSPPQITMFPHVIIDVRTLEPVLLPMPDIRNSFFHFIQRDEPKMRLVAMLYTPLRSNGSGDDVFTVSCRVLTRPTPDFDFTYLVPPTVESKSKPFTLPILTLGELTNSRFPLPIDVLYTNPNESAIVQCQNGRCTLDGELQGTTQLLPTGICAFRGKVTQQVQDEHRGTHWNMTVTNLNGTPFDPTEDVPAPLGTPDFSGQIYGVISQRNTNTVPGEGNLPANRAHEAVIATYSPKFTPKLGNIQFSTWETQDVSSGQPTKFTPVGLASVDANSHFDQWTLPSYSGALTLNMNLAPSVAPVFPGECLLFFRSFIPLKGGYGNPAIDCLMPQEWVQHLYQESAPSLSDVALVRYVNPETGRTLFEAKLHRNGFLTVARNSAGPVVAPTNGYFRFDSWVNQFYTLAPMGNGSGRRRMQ

Test [2] addresses T2, norovirus GII.4 2006 VLPs (full-length capsid protein VP1, virus-like particles) (norovirus GII.4 (Saga4 2006)).
T2 construct: mature; also called GII.4 VLPs
Put plainly: blocking ELISA: GII.4 VLPs pretreated with Nano-26, binding to coated PGM.

Experimental findings from patent US20200231656A1 (UNIVERSIT T HEIDELBERG, published 2020) are described below.

“And” between values parts separate entries of the source, which are not always exact repeats. Identical values can stand only once.

B1: Nano-26 (VHH)
VHH: QVQLQESGGGLVQPGGSLRLSCTAPRIIFFMYDVGWYRQAPEKQRELVAQINSDVSTKYADSVKGRFTISRDNAKRTVYLQMNDLKPEDAAVYYCNVRRASADYWGQGTQVTVSS
notes: also called Nanobody Nano-26; N26; not shown: His-tag implied by detection with an anti-His-tag antibody (pHEN6C vector); its
The IC50 is the concentration that inhibits the measured activity by half. As to B1, the concentration for half-maximal inhibition (IC50) in test [1] was 6.6 µg/mL and 3.1 µg/mL and 2.6 µg/mL and 4.3 µg/mL; in test [2], 2.4 µg/mL.
